Source: the DeepSol protein solubility set

Assay: soluble on expression in E. coli; label from the status in PepcDB or PDB records

Row | Sequence | soluble on expression in E. coli
1 | MGSDKIHHHHHHLEISLNEIIDYYAKADVSFVGAFGERVSPQLKVLDRHTNPAGGGLVIPFSGSACFTFDGKPYVIEPGMVVHAGPGMRLSKEVIGDREWEYAVIHYHIPQHERDEYPLFHKDFSLAHGRSAKVPHLVRQILDIQSIPGAAAKFQTKVLFLSLLQEIFTAACGQPGQENSKLIEEAMGYIRLNYADELTVQKVADEFSVERRQFSYLFKRHTGMSPIHYLIECRISKAKELLGSPGCSVKQVAEWVGYTDSLYFSKAFKKYTGVSPSEYREGFAL | not soluble
2 | MGSDKIHHHHHHLINVAETTGLQTKAFVGEADFQIVDYAGDKCIQFKNDSVFNAMLWEMNDMSEEERNNIFSGAGFVSQWQLMQEADQEQELIVDNYEKDLSQPWPAHQIKEFKQKYDDVFMFEPYDSTDFIAHYKLKGSTYSSFVNRRGVFLIGDSVAHAPVYKALEEYFGSGISLYGNNEATNEKNDINLAESKYQIPGGDYVKVRAIPRFIELQTIENKNYLSLGFDYLSQKKKVLWKKHRTMIILRLTASGSGSGFEVYNVSIKNYQNKNGVTILLHTDVYNKLLAKDQGGMLGHVGENPRNSVTIVTPPRFEFSGRMEIWSDEMPESNKGTAKISLKEDW | not soluble
3 | MGSDKIHHHHHHLLPKYNILTEDQVQKIHENTMKILEEIGIEFEYEPALEVFRREGQKVEGKRVYLTREFVESKLKSAPAEFTLHARNPENNVVIGGDNIVFMPGYGAPFIYELDGSRRKTTLQDYENFAKLAGASKNMHLSGGTMAEPQDIPDGVRHLQMLYSSIKNSDKCFMGSAEGKERAEDSVEIAAILFGGKDVIKEKPVLVSLINSLTPLKYDERMLGALMAYAEAGQAVIIASLVMAGSTGPASLAGTLSLQNAEVLAGISLAQSINPGTPVIYGSTSALSDMRSGSLSIGSPECALFISASAQLARFYGVPSRSGGGLNDSKTVDAQAGYESMMTLMAANLTGVNFVLHTAGILQYFMAMSYEKFIMDDEIAGMLLHYMKGYTFDEDGMAFDVIEKVGPGGHFLTQKHTRKNHKREFYTPTLSDRSAYDTWAKEKLETKQRAHARWQQILANYVPPALDPEIDAKLQAFIAQRGKEVGEE | not soluble
4 | MGSDKIHHHHHHLQVSEMEMLITLSEELNMRRAAERLFVSQPALSQRLVAIERRWATKLFIRSSRGLSITPQGEKVIGLAKEMNRKELELKSELTAEEGAVYGTLRIAVASIMGQYWLPRVLKRFVERYPHVRVQLVTGWSSEMMRHMLEEHFHIGIIRGNPDWKGVKERLFSDPLYLVDSELTSLEQLRKTERPFIQFKSDSTYYQEILEWWQDRFSSPPARTLVVDQIETCKQMALHGIGFAILPESTIHEASEVMQIPLKTSSGKILKRDTWILSTESMLELKQVQAFWDIVKEEGGSQSDGIRN | not soluble
5 | MGSDKIHHHHHHLRTNTVKVALVGCGRIAGHHARSIVATDGVQLAAVCDLAEDKALAYSNEFGVPSYTDYRRMLAEHPEISVVAVITPSGMHSEHGLEMMERFGKHIILEKPTMMRPEQLVHAWGVADRLNLSIFPVFQNRHNKAVTRVRQALAAGELGEIRIMSVRVRWCRPQRYYDLAPWRGTFSHDGGALTNQGIHHVDLLRHLGGEVDQVSATMRTLGADIEVEDTVVATMRYRSQAVGVLEVTTAARPDDFEASISIVGEKGLAQIGGIAVNELQVFTPDPAACAANSEDFKSFEGNGAVYGFGHSQMYRDIAAHFHQGKAYPVSREDCLGTLKLLHAFYRSDEAAGGWVDVDSPEQSTRLGRPDDAISNLYRTPLHG | not soluble
6 | MGSDKIHHHHHHLSREARYLEEARGFYQSGKFSSAGIYARKVIRREPSNGEAQALLGHLAFRSGEHQEAMSCYLKAQAAGFQDQELRLNLVTLHERREAFFDAVNLLRELVEETPQDLSLQLRLGINASRTGDMTTAESALLAALAGDEQAAQASLNLGHVYKAKGDTDKAAAFYHDYIRLAPSQQATAYWSLADLKNYRFTEQDEAALKANIAAEEFSQASQSLFHFALNRVYEQRKQGEQAFDAVRMANQLMRPLRPFKREAFTRLVDSLKSAEVKPRGEETSGPWTPIFIVGMPRSGTTLCEQILASHSQIAATDELPFMERLALSLEMKGGYGAMLPRLSEEQIAQMRQQYIEQVNQYLKAQGEASPSLVPSLVIDKNPNNFIHIGLIKTLFPEAKIINVIRDARDNAMGVYKQHFSHGHDYSYHLDDICHYWQLYLELMAHWQQAYGDSLYHLCFEQLVKAPDQQIPAMVDYVGLALEPACLKFYESKRSVLTPSASQVRRPMNVKAIGQSEAYAAFIPNAYRTLTVIADRAHKSFLS | not soluble
7 | MGSDKIHHHHHHLSSPQYRINMQKYVFRIHPLNTYQLSFFPNYEVNMYKKLNPMIGDRVYRSKGLVMHVGVMVDRDLVAHNSPDNNVEVISMEHFSQGKKVELKRSIGVDPTALKAQLQRISEENRRYCPISFNCEHFANELLGTKDGSEQLLAALLVGSFGLTCKNKWLGLATAGATGLLLCNGLRKYSTT | not soluble
8 | MGSDKIHHHHHHLTKKITEFQNDEEMELFVLIKSAEKRVTKAGKDFISMKFQDRSGDIHGNCWDAKEEDFKNFQPGRVVLLRGKRETYKNAPQVKIMAMRLATDEEPNDPTAYTEKGPVSAEKLREEFTQLMFEINNPDWNRVVRYLLKKYDREFFSFPAAKTNHHAFEGGLAFHTLSIVNLAKSVAAQYEQVDQSLLIAGAILHDLGKTIELSGPIATQYTVEGNLLGHIVIVDEEIVEAAKDLKIDPSSESMVVLRHMIVAHHGLKEYGSPVEPHMLEAVILHALDELDAEIQMVSGALKNTQPGAFSERIFGMDGRNFYKPESK | not soluble
9 | MGSDKIHHHHHHLYTYLQYIQSSVQTDVGFCVDGAKNLENMYESTKAVGSGPVKRQAGYGASSPSRASGSHPAPSPYDAASTSSSSSSDSCCSCGIGLAGPAGFPGRPGRDGIDGPAGKPGRDGQDLDGESSSDGSQIELDCPAGPPGPPGNPGPQGNSGRPGMDGMPGRNGRCGRPGEQGERGPNGEDGRPGRRGDDGMPGTVNEIPGQAGPPGLRGAPGATGSQGPRGNDGRPGNKGPAGPPGDQGFDGAPGGPGADGEPGAQGPLGAKGECSHCPPPRTAPGY | not soluble
10 | MGSDKIHHHHHHMAAGRDTALLMMNLMNAPVPLSPALELALPVDTAVVGVGYFGSLHALCYSRLPGSRLQALIDPDPITQFLAEHLGVPWFPGVAELPSTIRAVSVATPVAMHFGLTRSLLQQGLDVLLEKPIAETAAQATELRMVAEANQCILQIGHIERFNPAYTAGGTLLPFARTVRSVRTTRHPPRSSALDVVIDLMIHDLDLILHSLDSSVVELRASGRSCGLTAIDEAEVELTFSNGCRVYLDAHWGRDTEQDARCMVAELENDETWVIDFRRRMTYRKEPGSSTGPLPADGHTLPFPMQRIQEDTLSLQLAAFLDACRNRSLPRVTPAEGNAALELAHCIRQQILRPCP | not soluble
11 | MGSDKIHHHHHHMAAPDTPPDSPPPISAVEMPSGKDAGTENFPVGSVLLPARLRPHVARFYAFARAIDDIADSPDLDAAAKIDRLQGFEEAITGRDTTDPAYAKGHALRVSLEATGVPAIHGVELIAAFKQDAVKGRYATWAEMMDYCRLSAAPVGRYLIDLHGGSRAGYASSDALCVALQVINHLQDCQDDFRVLDRVYLPADWLAAEGASVSDLDRAACTPGLRRVLDRCLEGTRRLLDAARPLPGDIIDRRLGLEAAVIVSIAQTLTGRLARQDPLAQRVKLGKAATAFCAARACAAYLMVPGAYR | not soluble
12 | MGSDKIHHHHHHMADAETIRSYDQLAREQAAFQRHLQPTAIYRLVETFFHPGRPTIDIGSGSGRDVAWLNQHGYQAIGLEPSAGMIAEARAAYAGIEIRQGALPDLAGIADASFDNVLCVAVLMHLPAAELIGAVINLARILRPGGRLIVSYRTPPPEGERAHDGRLYTVIPPARLMLLLESSGLQILFSEDLPDPHRPSIRWFNMVAEKSDRDVSRGLERVGSVLAHDRKTATYKLALLRALCIIARNAFNLVEWSSDVVYVLLRAIATQWLIFYWPLLTSSEFIAQIRGEHPLSPKPIAFRPAITSLAKQLGGAAGLYNVLRILEEDPHRYDDILKLIANTIRKGPVTYSGSIHSPIFSYRPGKSDTFGWVAVPIDIWLDICRFNHWIEDSIVLRWAYLTDELNRTADPGRYLSLLVAKPLHERDTQEVRQALNRSPELFCVWTGQRLGHGYEVDHVIPYSVWGNNDLWNLLPAHPRINQTKRDALPARSILLARREAIIDYWQRYAQIDVFQPRFAVQIHRALGCNLRHADWPKLAFAGLEEVVERTAIVRGLPRWSP | not soluble
13 | MGSDKIHHHHHHMADNFLSQEEVDALLRGVTNEQEDDTPALDPAGVREYNLATQERIVRGRMPTLEIINERFARLLRIGLFNFLRRTTEVSVGPVKISKYSEFIRNLVVPTNLNLVQMKPLRGTALMVFDPTLVFLIVDNLFGGDGRFHTRVEGRDFTQTEQRIIQRVLAIVFETYAKSWEPVYKLEFEYIRSEMNTQFANIATPNEVVVSTTFNIELGSASGEIHFCFPYSMIEPIRDLLTSPLQGEALGVDKRWVRLMTQQIQSAEVMLIADLAKAEMTLGDILNMKVGDVIPLSISEEIEAKVDNVPVMQCKYGVFNGQYALRVEKLLRSNSSEYVKGEVPDGD | not soluble
14 | MGSDKIHHHHHHMADQTESVSGVNVDQAELQKFAELAHKWWDKNSEFKPLHEINPLRLNYIDEHAGLAGKRVLDVGCGGGILSESMSERGAEVTGIDLGEKALKVAKLHQYESSAKVDYRLISVEELAQESPESFDIVTCMEMLEHVPDPAAIVRACARLTKPGGKVFFSTINRNPKAYLFAVLGAEYVLNLLPRGTHEYEKFIKPSELAGWARAAGLDVIASKGMGYNPLTKRYKLNNDVSVNYILQTVK | not soluble
15 | MGSDKIHHHHHHMAEIEQALASPQLIAEKVLKLPSKVLELDRKLADPQFDTKDLLALIEQDPLLSVEVLKLCNSPAFKRGEREVTSLQQALVQLGREQLRRFVTSSLVREMLDIKPIYFRRFGAEIWRHSMQVAFLASELSEEDRDTAFLLGLLHDVGKLAIFKMLLDAFVQAEPGEQPNSWLFRQVMTAKSLTLSALLAKHWQLPSTFETELDKLAHVHTRPNEGIAAVVWRANVISEISMLQQASKLPADMLSNLLALVGLEQAQFDELHEKLQQF | not soluble
16 | MGSDKIHHHHHHMAEKQYDFTHVPKRQGNSIKWGVLKEKELPMWIAEMDFKIAPEIMASMEEKLKVAAFGYESVPAEYYKAVADWEEIEHRARPKEDWCVFASGVVPAISAMVRQFTSPGDQILVQEPVYNMFYSVIEGNGRRVISSDLIYENSKYSVNWADLEEKLATPSVRMMVFCNPHNPIGYAWSEEEVKRIAELCAKHQVLLISDEIHGDLVLTDEDITPAFTVDWDAKNWVVSLISPSKTFNLAALHAACAIIPNPDLRARAEESFFLAGIGEPNLLAIPAAIAAYEEGHDWLRELKQVLRDNFAYAREFLAKEVPEVKVLDSNASYLAWVDISALGMNAEDFCKYLREKTGLIISAGNGYRGNGHEFVRINLACPKELVIDGMQRLKQGVLNLNN | not soluble
17 | MGSDKIHHHHHHMAFVGFKKSGKTTTIEKVARVLKEKGYRVAIVKSMHSEFDRPGTDTWKFSRIADSVLVHAKDTDALLFKAKDINALFSMISSDVVLIEGFKSIKHVPKVICARSEDEVRELNDGLAIAVSGVIASQGVKEVDGLPVIDGTREPEKLAELVLKRGFMLPNIDCGLCGFNCEQMAKLIVKGEKSVNDCVVLSSRPKVIIKIDGQPLYLKDWVQELVEKTIKGMLSAMKGYREGKRIEIIING | not soluble
18 | MGSDKIHHHHHHMAFWQSKTLTEMTSQEWESLCDGCGKCCLNKLIDDETEELYYTNAACLLLDHQTTSCQHYSDRFRYVPQCTVITAQNVHELTWLPDSCAYRRLAAGRALPSWHPLLTGSKDAMHLAGMSIQGKVVDERRVKDIEDHIVLWPLKDLD | not soluble
